The target in assay [1] is microtubules (assembled from porcine brain tubulin, rhodamine-labeled, paclitaxel-stabilised) (porcine) (UniProt P02550). Description: optical trapping.
Assay [2] has the same target. The assay can be described thus: optical trapping. This is another data set of the same source.

Where two headings read alike, the source gives them in different places.

As to “KinΔC (mouse KIF5B 1-888 heavy chain with bound full-length KLC2) (from UniProt Q61768 1-888; O88448 1-599) (complex)”, the mean detachment force (single molecule) in assay [1] worked out at 6.4 pN; in assay [2], 6.3 pN.

Source of the values: paper PMC12709241.
